± gives the standard deviation of the averaged measurements.
system: ATP; assay: switch fluorescence ratio, 500 uM ATP over buffer (Cy3 cluster intensity, sum of 5 cycles each) (fold (ratio)); higher = stronger signal-on switching upon ATP binding; sequences stand for … in TCGTCGGCAGCGTCAGATGTGTATAAGAGACAGTTTTTTTTTTTTTTTTTTTTTTTTT…TC; settings: aptamer strand: ATP DNA aptamer (quencher-CACCTGGGGGAGTATTGCGGAGGAAGG + anchor), 100 nM annealed; ATP concentration: 500 uM
How it was run: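 Switching-strand clusters labelled with Cy3 on a modified Illumina MiSeq flow-cell were annealed to 100 nM quencher-labelled ATP aptamer, imaged in selection buffer, and re-imaged after 15 min with 500 uM ATP at 22 °C. This was done over five cycles with NaOH stripping and re-annealing in between. The fluorescence ratio is summed target-cycle over summed buffer-cycle Cy3 intensity per cluster, averaged per switch-domain sequence, excluding clusters outside 100-1000 RFU.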
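Further: ATP exposure 15 min at 22 °C before imaging.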

Sequence | switch fluorescence ratio
TCTAGGTTTT | 1.005 ± 0.0047
TCTAGTTAGG | 1.0115 ± 0.00098
TCTATAGGGG | 1 ± 0.05
TCTATATTAG | 1.02 ± 0.023
TCTATGAAAA | 0.9818 ± 0.004
TCTATGGGAC | 1.05 ± 0.013
TCTATTCTCG | 1.013 ± 0.0056
TCTATTTGGT | 0.9827 ± 0.0098
TCTCACGATT | 1.022 ± 0.0061
TCTCAGGGGA | 1.16 ± 0.11
TCTCAGGTTG | 1.072 ± 0.0058
TCTCCATTGC | 1.67 ± 0.035
TCTCCGTCCT | 1.33 ± 0.025
TCTCCTGGCT | 1.01 ± 0.014
TCTCGGATGT | 0.99 ± 0.039
TCTCGGGGTA | 0.979 ± 0.046
TCTCGGGTCT | 1.02 ± 0.045
TCTCGGGTTT | 0.9951 ± 0.0055
TCTCGTAAAT | 1.034 ± 0.01
TCTCGTACAG | 0.982 ± 0.024
TCTCTGAGGA | 0.985 ± 0.013
TCTCTGGCAG | 1.17 ± 0.17
TCTGAAACCG | 1.18 ± 0.12
TCTGAAATGG | 1.04 ± 0.047
TCTGAAGGGG | 1.12 ± 0.11

Sequence | switch fluorescence ratio
TCTGAATGG | 1.01 ± 0.033
TCTGACTTGA | 0.968 ± 0.018
TCTGAGAGGG | 1 ± 0.017
TCTGAGATAT | 0.9872 ± 0.0028
TCTGAGCGAC | 1.57 ± 0.14
TCTGAGGTTT | 1.04 ± 0.029
TCTGCCTAGG | 1.13 ± 0.075
TCTGCGTAAG | 1.003 ± 0.0065
TCTGCGTCTG | 1.16 ± 0.2
TCTGCTTATT | 0.979 ± 0.048
TCTGGAGTTG | 1.01 ± 0.084
TCTGGCAATG | 1.46 ± 0.061
TCTGGCGGC | 0.981 ± 0.039
TCTGGCTATT | 1.01 ± 0.02
TCTGGCTTTT | 1.022 ± 0.0092
TCTGGGAATT | 1.046 ± 0.0027
TCTGGGCTTT | 1.07 ± 0.1
TCTGGGGAGT | 1.01 ± 0.043
TCTGGGGCGG | 1.04 ± 0.074
TCTGGTGATA | 1.01 ± 0.017
TCTGGTGTTC | 1.045 ± 0.005
TCTGGTTGGG | 1.04 ± 0.064
TCTGGTTGTG | 1.01 ± 0.016
TCTGTAATTT | 1.41 ± 0.59
TCTGTAGGGG | 0.995 ± 0.013

Sequence | switch fluorescence ratio
TCTGTGAGGT | 1.034 ± 0.0072
TCTGTGTTTT | 1.04 ± 0.038
TCTGTTAGTG | 1.03 ± 0.045
TCTGTTGTTC | 0.993 ± 0.018
TCTTAATTG | 0.98356 ± 0.00079
TCTTAGAAC | 1.009 ± 0.0062
TCTTAGCATT | 1.04 ± 0.077
TCTTAGGGTT | 1.02 ± 0.017
TCTTAGTTCG | 1.008 ± 0.01
TCTTATAGGG | 1 ± 0.042
TCTTATGGCC | 0.975 ± 0.018
TCTTATTCTG | 1.044 ± 0.0063
TCTTCGGGAA | 1.09 ± 0.06
TCTTCTACCT | 1.2 ± 0.022
TCTTCTAGCT | 1.05 ± 0.019
TCTTGAAGGT | 0.985 ± 0.0053
TCTTGCGTCG | 0.976 ± 0.023
TCTTGGATGT | 1.0101 ± 5.3e-05
TCTTGGTA | 0.959 ± 0.031
TCTTGGTCTC | 0.995 ± 0.027
TCTTGTATGG | 0.9906 ± 0.006
TCTTTAAAGG | 1.04 ± 0.039
TCTTTCCGGT | 1.14 ± 0.23
TCTTTCGGAG | 1.33 ± 0.077
TCTTTGAAGA | 1.14 ± 0.24

Sequence | switch fluorescence ratio
TCTTTGGACC | 1.04 ± 0.056
TCTTTGGTGG | 1.03 ± 0.038
TCTTTTCATT | 0.994 ± 0.022
TCTTTTCCCT | 1.02 ± 0.086
TCTTTTGCCT | 1.01 ± 0.034
TCTTTTGCTT | 1.01 ± 0.032
TCTTTTGGCA | 1.1 ± 0.078
TCTTTTGGTT | 1.011 ± 0.0051
TCTTTTTTTC | 1.02 ± 0.034
TGAAAAAAAT | 1.05 ± 0.058
TGAAAAACCG | 1.14 ± 0.12
TGAAAAACGT | 0.991 ± 0.013
TGAAAAAGGT | 0.9993 ± 0.0021
TGAAAAGGTA | 1 ± 0.013
TGAAAGAGGC | 0.999 ± 0.014
TGAAAGGATT | 1.02 ± 0.025
TGAAAGGTGG | 1.04 ± 0.018
TGAAAGTGTT | 0.994 ± 0.012
TGAAATGGGA | 1.0074 ± 0.00077
TGAACGGGGA | 1.02 ± 0.031
TGAACTAATT | 1.01 ± 0.0099
TGAACTTAGT | 0.995 ± 0.02
TGAACTTTTA | 0.965 ± 0.061
TGAAGAAAGT | 0.998 ± 0.032
TGAAGATTAT | 0.988 ± 0.012

— the supplement of paper PMC10126150
